Data from patent publication US20110305703A1, “ISOLATED VEGF-C AND VEGF-D PEPTIDES AND USES THEREOF” (Vegenics Pty Limited, priority 2008, published 2011).
Entries after “also recorded” stand apart in the source; their conditions may differ.

These molecules were tested on VDnmAb (assay: Western blot of conditioned media containing VEGF-DΔNΔC variants probed with VDnmAb). Conditions: conditioned media of 293-F cells; in comparison to VEGF-DΔNΔC.
Assay type: binding
Excerpt: Site-directed mutagenesis. DNA encoding VEGF-DΔNΔC, a form of mature human VEGF-D tagged at the N-terminus with the FLAG octapeptide (FIG. 11; SEQ ID NO: 145), was subjected to site-directed mutagenesis by PCR to generate VEGF-DΔNΔC variants. Mutations were introduced by amplification with the following primers: N147Q with 5'-[…] NO: 146) and 5'-[…] with 5'-[…] NO: 148) and 5'-[…] with 5'-[…] NO: 150) and 5'-[…] with 5'-[…] NO: 152) and 5'-[…] with 5'-[…] NO: 154) and 5'-[…] with 5'-[…] NO: 156) and 5'-[…] with 5'-[…] NO: 158) and 5'-[…] NO: 159) (FIG. 12). The desired mutations, as well as the absence of any unwanted mutations, in the resulting DNA fragments were confirmed by nucleotide sequencing. Expression of VEGF-DΔNΔC variants. Plasmids containing DNA encoding VEGF-DΔNΔC or its variants were used for transient transfection of 293-F cells with the FreeStyle MAX 293 Expression System according to manufacturer's instructions (Invitrogen). Cells expressing each variant were cultured in serum-free medium, and 30 ml of conditioned media was collected 7 days post-transfection and used for analysis. Western Blot Analysis. Conditioned media containing different variants of VEGF-DΔNΔC were resolved by SDS-PAGE, transferred to nitrocellulose membrane, probed with M2 anti-FLAG or VDnmAb antibodies labeled with IRDye 800CW according to manufacturer's instructions (LI-COR), and detected with an Odyssey Infrared Imaging System (LI-COR).

Molecule	VDnmAb binding to VEGF-DΔNΔC variant in Western blot
S150G/L151V: VEGF-DΔNΔC variant with double mutation S150G/L151V (mouse residues) (protein) MYREWVVVNVFMMLYVQLVQGSSNEHGPVKRSSQSTLERSEQQIRAASSLEELLRITHSEDWKLWRCRLRLKSFTSMDSRSASHRSTRFAATFYDIETLKVIDEEWQRTQCSPRETCVEVASELGKSTNTFFKPPCVNVFRCGGCCNEEGVICMNTSTSYISKQLFEISVPLTSVPELVPVKVANHTGCKCLPTAPRHPYSIIRRSIQIPEEDRCSHSKKLCPIDMLWDSNKCKCVLQEENPLAGTEDHSHLQEPALCGPHMMFDEDRCECVCKTPCPKDLIQHPKNCSCFECKESLETCCQKHKLFHPDTCSCEDRCPFHTRPCASGKTACAKHCRFPKEKRAAQGPHSRKNP	complete loss of VDnmAb binding
L151V: VEGF-DΔNΔC variant with mutation L151V (protein) DYKDDDDKFYDIETLKVIDEEWQRTQCSPRETCVEVASELGKSTNTFFKPPCVNVFRCGGCCNEESVICMNTSTSYISKQLFEISVPLTSVPELVPVKVANHTGCKCLPTAPRHPYS	dramatic decrease in the amount of VDnmAb bound; also recorded: significantly affected VDnmAb binding
S150G: VEGF-DΔNΔC variant with mutation S150G (protein) DYKDDDDKFYDIETLKVIDEEWQRTQCSPRETCVEVASELGKSTNTFFKPPCVNVFRCGGCCNEEGLICMNTSTSYISKQLFEISVPLTSVPELVPVKVANHTGCKCLPTAPRHPYS	significantly affected VDnmAb binding; also recorded: significantly affected, but did not eliminate, binding
S150T: VEGF-DΔNΔC variant with mutation S150T (protein) DYKDDDDKFYDIETLKVIDEEWQRTQCSPRETCVEVASELGKSTNTFFKPPCVNVFRCGGCCNEETLICMNTSTSYISKQLFEISVPLTSVPELVPVKVANHTGCKCLPTAPRHPYS	significant decrease in the amount of VDnmAb bound
N147Q: VEGF-DΔNΔC variant with mutation N147Q (protein) DYKDDDDKFYDIETLKVIDEEWQRTQCSPRETCVEVASELGKSTNTFFKPPCVNVFRCGGCCQEESLICMNTSTSYISKQLFEISVPLTSVPELVPVKVANHTGCKCLPTAPRHPYS	significant decrease in the amount of VDnmAb bound
E148S and S150G double mutation: VEGF-DΔNΔC variant containing both E148S and S150G (VEGF-C residues) (protein) DYKDDDDKFYDIETLKVIDEEWQRTQCSPRETCVEVASELGKSTNTFFKPPCVNVFRCGGCCNSEGLICMNTSTSYISKQLFEISVPLTSVPELVPVKVANHTGCKCLPTAPRHPYS	complete loss of VDnmAb binding
E148S: VEGF-DΔNΔC variant with mutation E148S (protein) DYKDDDDKFYDIETLKVIDEEWQRTQCSPRETCVEVASELGKSTNTFFKPPCVNVFRCGGCCNSESLICMNTSTSYISKQLFEISVPLTSVPELVPVKVANHTGCKCLPTAPRHPYS	complete loss of VDnmAb binding
